The target in test [1] is monothiol glutaredoxin 5 (Grx5) (S. cerevisiae) (UniProt Q02784). Put plainly: co-IP.
The target of test [2] is N-terminally His-tagged S. cerevisiae Grx5 (recombinant) (S. cerevisiae) (UniProt Q02784). Put plainly: MST.

Consider “Ssq1-glutathione S-transferase (GST) fusion protein (natural protein)”, for which, in test [1], the amount bound to anti-Grx5 immunobeads relative to Ssc1 is > 4 fold.

As to “recombinant His-tagged S. cerevisiae Ssq1 (natural protein)”, in test [2], the Ka turned out to be 440000 M⁻¹.

Values taken from PMC3681689.
